Consider 40 sequences from the nanobody polyreactivity screen of Harvey et al. (2022).

A short description of this series: yeast display, Sf9 membrane polyspecificity reagent, FACS + sequencing; frameworks hold sequencing errors. In outline:
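After 36–48 hours of galactose induction, yeast (Saccharomyces cerevisiae BJ5465) displaying a synthetic nanobody library were stained at 4 °C for 1 hour with 10% biotinylated, detergent-solubilized Sf9 membrane reagent. Streptavidin microbeads enriched the stained cells before FACS sorting into low and high (top ~1%) gates on anti-HA and streptavidin fluorescence. Each clone's polyreactivity label reflects its gate of origin.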
Consider “QVQLVESGGGLVQAGGSLRLSCAASGSTFYGNDMGWYRQAPGKERELVAAISSGGSTNYADSVKGRFTISRDNAKNTVYLQMNSLKPEDTAVYYCAADDTPDTMYGSDYWGQGTQVTVSS”, for which the “polyreactivity (PSR sort gate)” value was “low polyreactivity”.

Regarding “QVQLVESGGGLVQAGGSLRLSCAASGSTFYGYTMGWYRRAPGKERELVAAITFRGGSTYYADSVKGRFTISRDNAKNTVYLQMNSLKPEDTAVYYCAAVGRYSRYPYSDTYGYWGQGTQVTVSS”, the “polyreactivity (PSR sort gate)” value is listed as “high polyreactivity”. Regarding “QVQLVESGGGLVQAGGSLRLSCAASGSTFYHYAMGWYRQAPGKERELVAAISTGGSTYYADSVKGRFTISRDNAKNTVYLQMNSLKPEDTAVYYCNARYIGGYGYWGQGTQVTVSS”, the “polyreactivity (PSR sort gate)” value was “low polyreactivity”. Regarding “QVQLVESGGGLVQAGGSLRLSCAASGSTFYHYAMGWYRQAPGKERELVATISRRGGSTYYADSVKGRFTISRDNAKNTVYLQMNSLKPEDTAVYYCAAEYARSSRYKISSEMYYWGQGTQVTVSS”, the “polyreactivity (PSR sort gate)” value is on record as “high polyreactivity”. For the sequence “QVQLVESGGGLVQAGGSLRLSCAASGSTFYINAMGWYRQAPGKERELVADITVRGGNTYYADSVKGRFTISRDNAKNTVYLQMNSLKPEDTAVYYCNALLSGGRAGFDYWGQVTQVTVSS”, the “polyreactivity (PSR sort gate)” value is “high polyreactivity”. As for “QVQLVESGGGLVQAGGSLRLSCAASGSTFYINTMGWYRQAPGKEREFVAAITWSGGSTYYADSVKGRFTISRDNAKNTVYLQMNSLKPEDTAVYYCAADLYVGDMDYWGQGTQVTVAS”, the “polyreactivity (PSR sort gate)” value is recorded as “low polyreactivity”. “QVQLVESGGGLVQAGGSLRLSCAASGSTFYIYAMGWYRQAPGKDRELVARISGSGGSTYYADSVKGRITISRDNAKNTVYLQMNSLKPEDTAVYYCAATKFNSFYWRYGYWGQGTQVTVSS”: the “polyreactivity (PSR sort gate)” value is “low polyreactivity”. Turning to “QVQLVESGGGLVQAGGSLRLSCAASGSTFYIYAMGWYRQAPGKERELVAAITWSGSRTYYADSVKGRFTISRDNAKNTVYLQMNSLKPEDTAVYYCAARSYRNNRYKEDYWGQGTQVTVSS”, the “polyreactivity (PSR sort gate)” value was “high polyreactivity”. To “QVQLVESGGGLVQAGGSLRLSCAASGSTFYIYAMGWYRQATGKERELVAAIDWNDGSTYYADSVKGRFTISRDNAKNTVYLEMHSLKPEDTAVYYCAAAIYIYRDGTYDYWGQGTQETVSS” belongs “high polyreactivity”; to “QVQLVESGGGLVQAGGSLRLSCAASGSTFYIYVMGWYRQAPGKERELVARISSSGGSTYYADSVKGRFTISRDNAKNTVYLQMNSLKPEDTAVYYCNVDYGAWYDYWGQGTQVTVSS”, “low polyreactivity”; to “QVQLVESGGGLVQAGGSLRLSCAASGSTFYKNAMGWYRQAPGKERELVARISGRGGSTYYADSVKGRFTISRDNAKNTVYLQMNSLKPEDTAVYYCNALYRVFVGTYDYWGQGTQVTVSS”, “high polyreactivity”. To “QVQLVESGGGLVQAGGSLRLSCAASGSTFYKNSMGWYRQAPGKERELVATISASSTSTYYADSVKGRFTISRDNAKNTVYLQMNSLKPEATAVYYCSKVYVHGSTYGYYWYGYDYWGQGTQVTVSS” belongs “low polyreactivity”. For the sequence “QVQLVESGGGLVQAGGSLRLSCAASGSTFYKSTMGCYRQPPGKESELVPAISGSATTTYYADSVKGRFTISRDNAKNTVYLQMNSLKPEDTAVYYCAARRFSPGSSGHGYWGQGTQVNVSS”, the “polyreactivity (PSR sort gate)” value is “high polyreactivity”. To “QVQLVESGGGLVQAGGSLRLSCAASGSTFYKYAMGWYRQAPGKERELVAAITRSGGSTYYADSVKGRFTISRDNAKNTVYLQMNSLKPEDTAVYYCNADRKSRSKGVGYDYWGQGTQVTVSS” belongs “high polyreactivity”; to “QVQLVESGGGLVQAGGSLRLSCAASGSTFYKYAMGWYRQAPGKERELVASITWSGTSTYYADSVKGRFTISRDKAKNTVYLQMNSLKPEDTAVYYCNAGLESYYWGYTWEFDYWGQGTQVTVSS”, “low polyreactivity”. Take “QVQLVESGGGLVQAGGSLRLSCAASGSTFYLNAMGWYRQAPGKEREFVAAIRGGGTSTRYADSVKGRFTISRDNAKNTVYLQMNSLKPEDTAVYFCAAPRVVYRGDYWGQGTQVTVSS”: the “polyreactivity (PSR sort gate)” value is recorded as “high polyreactivity”. With “QVQLVESGGGLVQAGGSLRLSCAASGSTFYLYAMGWYRQAPGKEREFVAAISWSGGRTYYADSVKGRFTISRDNAKNTVYLQMNSLKPEDTAVYYCAARRRYTWQYTRYDMGYWGQGTQVTVSS” the entry was “low polyreactivity”; with “QVQLVESGGGLVQAGGSLRLSCAASGSTFYLYAMGWYRQAPGKERELVAAISRGGTTYYADSVKGRFTISRDNAKNTVYLQMNSLKPEETAVYYCNARYTSRRSRRPYYYWGQGTQVTVSS”, “high polyreactivity”; with “QVQLVESGGGLVQAGGSLRLSCAASGSTFYLYAMGWYRQAPGKERELVAAISWSGDSTYYADSVKGRFTISRDNAKNTVYLQMNSLKPEDTAVYYCAAEFYWGDLSYWGQGTQVSVSS”, “high polyreactivity”. On to “QVQLVESGGGLVQAGGSLRLSCAASGSTFYLYAMGWYRQAPGKERELVAAISWSGGDTYYADSVKGRFTISRDNANNTVYLQMTSLKPEDSAVYYCAAEITYSYPGSPRRRDYWGQGTQVTVSS”, for which the “polyreactivity (PSR sort gate)” value is reported as “low polyreactivity”. As to “QVQLVESGGGLVQAGGSLRLSCAASGSTFYLYAMGWYRQAPGKERELVASITSGDGSTYYADSVKGRFTISRDNPKNTVYLQMNSLKPEDTAVYDCNAVLEGWFYQDDYWGQGTQVSVSS”, the “polyreactivity (PSR sort gate)” value is “low polyreactivity”.

As for “QVQLVESGGGLVQAGGSLRLSCAASGSTFYLYAMGWYRQAPGKERELVATITNGGGTNYADSVKGRFTISRDNAKNTVYLQMNSLKAEDTAVYYCAAKWYHRDGDYWGQGTQVTVSS”, the “polyreactivity (PSR sort gate)” value is on record as “low polyreactivity”.

On to “QVQLVESGGGLVQAGGSLRLSCAASGSTFYLYAMGWYRQAPGKERELVAVITTDGSTTYADSVKGRFTISRDNAKNTVYLQMNSLKPEDTAVYYCAAYGGNGQYYSQYDYWGQGTQVTVSS”, for which the “polyreactivity (PSR sort gate)” value was “low polyreactivity”. For “QVQLVESGGGLVQAGGSLRLSCAASGSTFYLYGMGWYRQAPGKERELVAAITYSGGSTYYADSVKGRFTISRDNAKNTVYLQMNSLKPEDTAVYYCNARSQWRSSRFYYWGQGTQVTVSS”, the “polyreactivity (PSR sort gate)” value is “high polyreactivity”. Turning to “QVQLVESGGGLVQAGGSLRLSCAASGSTFYNNAMGWYRQAPGKERELVAVITDSGGRTYYADSVKGRFTISRDNAKNTVYLQMNSLKPEDTAVYYCAVVAPGGGDDYWGQGTQVTVSS”, the “polyreactivity (PSR sort gate)” value was “low polyreactivity”.

In the case of “QVQLVESGGGLVQAGGSLRLSCAASGSTFYNYAMGWYRQAPGKERELVAAITSSGGSTYYADSVKGRFTISRDNAKNTVYLQMNSLKPEDTAVYYCAATRRVRRKSFTYRYDYWGQGTQVTVSS”, the “polyreactivity (PSR sort gate)” value is “high polyreactivity”. Take “QVQLVESGGGLVQAGGSLRLSCAASGSTFYNYAMGWYRQAPGKERELVAAITSSGGSTYYADSVKGRFTISRDNAKNTVYLQMNSLKPEDTAVYYCNADDGYGQVHSISTYEMDYWGQGTQVTVSS”: the “polyreactivity (PSR sort gate)” value is “low polyreactivity”. To “QVQLVESGGGLVQAGGSLRLSCAASGSTFYNYVMGWYRQAPGKERELVAAINWSGCRTYYADSVKGRFTISRDNAKNTVYLQMNSLKPEDTAVYYCAAGYTLPWYKGFDYWGQGTQVTVSS” belongs “high polyreactivity”; to “QVQLVESGGGLVQAGGSLRLSCAASGSTFYPYAMGWYRQAPGKERELVAAIRFSGASTYYADSVKGRFTISRDNAKNTVYLQMNSLKPEDTAVYYCAARYVYSWPYRYGYWGQGTQVTVSS”, “low polyreactivity”.

As for “QVQLVESGGGLVQAGGSLRLSCAASGSTFYPYAMGWYRQAPGKERELVAAISISGGITYYADSVKGRFTISRDNAKNTVYLQMNSLKPEDTAVYYCAAEYLAVSGYWYDYWGQGTQVTVSS”, the “polyreactivity (PSR sort gate)” value was “high polyreactivity”. As to “QVQLVESGGGLVQAGGSLRLSCAASGSTFYPYAMGWYRQAPGKERELVAAISSGGSTSYADSVKGRFTISRDNAKNTVYLQMNSLKPEDTAVYYCNASSPGAVPVYYYDYWGQGTQVTVSS”, the “polyreactivity (PSR sort gate)” value is reported as “low polyreactivity”. Take “QVQLVESGGGLVQAGGSLRLSCAASGSTFYPYDMGWYRQAPGKERELVATMTSTGGSTNYADSVKGRFTISRDNAKNTVYLQMNSLKPEDTAVYYCAKDWNDDQHSWDTPFDYWGQGTQVTVSS”: the “polyreactivity (PSR sort gate)” value is on record as “low polyreactivity”. As for “QVQLVESGGGLVQAGGSLRLSCAASGSTFYPYLIGWYRQAPGKERELLPAISGGGRTYYADSVKGRFTISRDNAKNTVYLQMNSLKPEDTAVYFCAARYTTYSGRGTRPAGIRYDYWGQGTQVTVSS”, the “polyreactivity (PSR sort gate)” value is given as “high polyreactivity”. As for “QVQLVESGGGLVQAGGSLRLSCAASGSTFYRNAMGWYRPAPGKERELVAAINSTDSTNYADSVKGRFTISRDNAKNTVYLQMNSLKPEDTAVYYCAAVGDNLATAEYDYWGQGTQVTVSS”, the “polyreactivity (PSR sort gate)” value is listed as “low polyreactivity”. As for “QVQLVESGGGLVQAGGSLRLSCAASGSTFYRNAMGWYRQAPGKEREFVAAISFRGGGTYADSVKGRFTISRDNAKNTVYLQMNSLKPEDTAVYYCAADHLSYRRRYEYWGLGTQVTVSS”, the “polyreactivity (PSR sort gate)” value is on record as “low polyreactivity”. “QVQLVESGGGLVQAGGSLRLSCAASGSTFYRNAMGWYRQAPGKEREFVAAITTDDSTYYADSVKGRFTISRDNAKNTVYVQMNSLKPEDTAVYYCAAGLEGKATWAAVGGYDYWGQGTQVTVSS”: the “polyreactivity (PSR sort gate)” value was “low polyreactivity”.

Turning to “QVQLVESGGGLVQAGGSLRLSCAASGSTFYRNAMGWYRQAPGKERELVAAISRDGSTYYADSVKGRFTISRDNAKNTVYLQMNSLKPEDTAVYSCAKAGVTNGVVVDSVYAYDYWGQGTQVTVSS”, the “polyreactivity (PSR sort gate)” value is on record as “low polyreactivity”.

“QVQLVESGGGLVQAGGSLRLSCAASGSTFYRNAMGWYRQAPGKERELVAAITSRGTRTFYADSVKGRFTISRDNAKNTVYLQMNSLKPEDTAVYYCAVTYQAEDEYDYWGQGTQVTVSS”: the “polyreactivity (PSR sort gate)” value is recorded as “low polyreactivity”.

Consider “QVQLVESGGGLVQAGGSLRLSCAASGSTFYRNAMGWYRQAPGKERELVATISTGGVSTYYADSVKGRFTISRDNAKNTVYLQMNSLKPEDTAVYYCAKRTVYLSNLDYWGQGTQVTLSS”, for which the “polyreactivity (PSR sort gate)” value is listed as “low polyreactivity”. With “QVQLVESGGGLVQAGGSLRLSCAASGSTFYRNAMGWYRQARGKERELVAAISRGGSTYYADSVKGRFTISRDNAKNTVYLQMNSLKPEDTAVYYCNTDVNYAGYGWYYYWGQGTQVTVSS” the entry was “high polyreactivity”.
